This is an account of results in publication PMC6774396 (Frontiers in Immunology, 2019).

Residue numbers refer to the chain shown, from its start.

In assay [1] the test system is THP-1 cells on immobilized biglycan. As to conditions: isolated THP-1 cells, L-selectin-GFP/RFP; cited from earlier work. The source says: This figure pieces together data from our recently published work ([8], [23]) with our data from this study. (A,B) In cells expressing WT L-selectin, clustering is only witnessed within pseudopods of transmigrating cells. […] Moesin-driven clustering is a pre-requisite for L-selectin shedding, and so the balance of L-select ...

Assay [2] concerns THP-1 cells over TNF-α-activated HUVEC. In words: L-selectin-GFP/RFP clustering in mid-TEM under flow, FLIM/FRET. Type of assay: cell-based, human. Conditions: 15 min perfusion at 1.5 dyn/cm^2, fixed in mid-TEM; Top = non-transmigrated uropods, Base = transmigrated pseudopods; at least 45 cells, 3 experiments; no TAPI-0. How it is done:
(A) Line scanning confocal microscopic image of THP-1 cells, stably expressing GFP, captured in mid-TEM—following 15 min of perfusion over TNF-α-activated HUVEC monolayers. […] “Top” and “Base,” respectively, represent the apical and basolateral aspect of the endothelium (x63 objective lens, Leica SP5). Scale bar = 24 μm. (B,C) THP-1 cells expressing WT, SSAA, or SSDD L-selectin-GFP/RFP were perfused over TNF-α-activated HUVEC and fixed after 15 min of perfusion. […] Lifetime images taken of at least 45 cells and analyzed over 3 independent experiments was quantified and expressed as FRET efficiency. Images representative of three independent experiments, where at least 45 cells of each group was analyzed at two optical sections, Top and Base, as indicated in the cartoon of a yellow monocyte captured in mid-TEM crossing a red endothelium. Individual GFP channel and lifetime images are provided for each cell line. The lifetime of fluorescence is expressed in a pseudocolour scale from red (low lifetime with a very high probability of interaction) to blue (high lifetime with a very low probability of interaction). Statistics: unpaired student t-test ***p ≤ 0.001.
Cells expressing WT L-selectin-GFP/RFP were treated for 30 min with 10 μM TAPI-0 and subsequently perfused over TNF-activated HUVEC monolayers for 15 min prior to fixation and analysis for FRET by FLIM (see Materials and Methods for more detail). […] (B) Images representative of three independent experiments, where at least 45 cells of each group were analyzed at two optical sections–non-transmigrated uropods (Top) and transmigrated pseudopods (Base). GFP fluorescence channel and lifetime images are provided for each cell line. The lifetime of fluorescence is expressed in a pseudocolour scale from red (low lifetime with a very high probability of interaction) to blue (high lifetime with a very low probability of interaction). […]
FLIM measurement of FRET was performed with a multiphoton microscope system as described previously ([8], [23]). […] Fluorescence lifetime imaging capability was provided by time-correlated, single-photon counting electronics (SPC 700; Becker & Hickl). […] Data were analyzed as previously described ([65]). The FRET efficiency is related to the molecular separation of donor and acceptor and the fluorescence lifetime of the interacting fraction by: […]
where ηFRET is the FRET efficiency, R0 is the Förster radius, r is the molecular separation, τFRET is the lifetime of the interacting fraction and τd is the lifetime of the donor in the absence of an acceptor. The donor- only control is used as the reference against which all of other lifetimes are calculated in each experiment. τFRET and τd can also be taken to be the lifetime of the interacting fraction and non-interacting fraction, respectively. […]

B1: WT: wild-type human L-selectin, C-terminally tagged with GFP or RFP, expressed in THP-1 cells (protein)
chain: WTYHYSEKPMNWQRARRFCRDNYTDLVAIQNKAEIEYLEKTLPFSRSYYWIGIRKIGGIWTWVGTNKSLTEEAENWGDGEPNNKKNKEDCVEIYIKRNKDAGKWNDDACHKLKAALCYTASCQPWSCSGHGECVEIINNYTCNCDVGYYGPQCQFVIQCEPLEAPELGTMDCTHPLGNFSFSSQCAFSCSEGTNLTGIEETTCGPFGNWSSPEPTCQVIQCEPLSAPDLGIMNCSHPLASFSFTSACTFICSEGTELIGKKKTICESSGIWSNPSPICQKLDKSFSMIKEGDYNPLFIPVAVMVTAFSGLAFIIWLARRLKKGKKSKRSMNDPY
modifications: left off: eGFP (donor copy) or mCherry (acceptor copy, called RFP), C-terminal, kept
Take B1: the “clustering on immobilized biglycan” value in assay [1] is on record as “can cluster when seeded onto immobilized biglycan”. Moreover, in assay [2], the “subcellular distribution of L-selectin clustering during TEM (FLIM/FRET)” value is “clustered exclusively within transmigrated pseudopods”.

B2: SSAA: L-selectin with Ser^364 and Ser^367 both mutated to alanines (protein)
chain: B1 chain with S326A, S329A
modifications: left off: eGFP (donor copy) or mCherry (acceptor copy, called RFP), C-terminal, kept
As to B2, in assay [2], the “subcellular distribution of L-selectin clustering during TEM (FLIM/FRET)” value is on record as “phenocopied the subcellular distribution of WT L-selectin”.
